Results on 5 substances are retold here after article PMC5138414, “Structural Basis for Redox Regulation of Cytoplasmic and Chloroplastic Triosephosphate Isomerases from Arabidopsis thaliana” (Frontiers in Plant Science, 2016).

What all share (assay): SEC; analytical size-exclusion chromatography, Superdex 75 10/300GL, calibrated with Bio-Rad gel filtration standard, 0.5 mL/min, 100 mM TEA pH 7.4, 10 mM EDTA, 1 mM DTT; dimer of identical subunits
In assay [1] the target is chloroplast triosephosphate isomerase from Arabidopsis thaliana, without the predicted chloroplast targeting sequence (Arabidopsis thaliana).
Assay [2] addresses cytoplasmic triosephosphate isomerase from Arabidopsis thaliana (Arabidopsis thaliana) (UniProt P48491).
In assay [3] the target is pdTPI-C15S (Arabidopsis thaliana).
In assay [4] the target is pdTPI-C15S/C89S (Arabidopsis thaliana).
The target of assay [5] is pdTPI-C89S (Arabidopsis thaliana).

What is called stoichiometry N is a count of units in the complex or per binding partner.

With “chloroplast triosephosphate isomerase from Arabidopsis thaliana, without the predicted chloroplast targeting sequence (enzyme)”, the stoichiometry N in assay [1] was 2. “cytoplasmic triosephosphate isomerase from Arabidopsis thaliana (from UniProt P48491 1-254) (enzyme)” gave a stoichiometry N in assay [2] of 2. Turning to pdTPI-C15S (enzyme), in assay [3], the stoichiometry N is 2. For pdTPI-C15S/C89S (enzyme), the stoichiometry N in assay [4] is 2. Consider pdTPI-C89S (enzyme), for which the stoichiometry N in assay [5] amounted to 2.
